Measured values reported in paper PMC11558545 (2024).
Where a chain is given by its changes, count along the chain named. Where “and” joins values, the source holds several entries; their conditions need not be identical. Equal values may be shown once. Read-outs that look alike come from different tables or passages of the source. Square brackets hold non-standard residues; d marks the D form. Ends that are not written are not given here. pT = C[C@@H](OP(=O)(O)O)[C@H](N)C(=O)O; pS = N[C@@H](COP(=O)(O)O)C(=O)O

T1: Arabidopsis 14-3-3 isoform kappa (At14-3-3-κ^1−248) (Arabidopsis thaliana, UniProt P48348 1-248)
T1 chain: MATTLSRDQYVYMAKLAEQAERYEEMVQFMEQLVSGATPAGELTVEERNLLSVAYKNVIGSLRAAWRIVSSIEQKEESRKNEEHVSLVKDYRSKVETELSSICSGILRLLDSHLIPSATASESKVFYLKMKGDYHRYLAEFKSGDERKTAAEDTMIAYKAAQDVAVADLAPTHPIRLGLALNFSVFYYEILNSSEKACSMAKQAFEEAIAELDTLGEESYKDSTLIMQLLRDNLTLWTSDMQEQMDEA

T2: biotinylated 14-3-3 ω dimer (Arabidopsis thaliana, UniProt Q01525 1-259, biotin (EZ-Link NHS-Biotin, equimolar amounts of protein and biotin; sites not stated))
T2 chain: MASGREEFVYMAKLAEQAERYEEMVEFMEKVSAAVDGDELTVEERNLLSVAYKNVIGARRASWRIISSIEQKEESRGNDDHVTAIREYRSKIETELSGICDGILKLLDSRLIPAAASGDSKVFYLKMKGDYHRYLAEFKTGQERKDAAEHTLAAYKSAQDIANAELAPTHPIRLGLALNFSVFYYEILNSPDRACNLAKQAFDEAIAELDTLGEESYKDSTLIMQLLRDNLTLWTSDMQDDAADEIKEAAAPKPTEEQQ

T3: At14-3-3 λ^N233A (Arabidopsis thaliana, UniProt P48349 1-248, N233A)
T3 sequence: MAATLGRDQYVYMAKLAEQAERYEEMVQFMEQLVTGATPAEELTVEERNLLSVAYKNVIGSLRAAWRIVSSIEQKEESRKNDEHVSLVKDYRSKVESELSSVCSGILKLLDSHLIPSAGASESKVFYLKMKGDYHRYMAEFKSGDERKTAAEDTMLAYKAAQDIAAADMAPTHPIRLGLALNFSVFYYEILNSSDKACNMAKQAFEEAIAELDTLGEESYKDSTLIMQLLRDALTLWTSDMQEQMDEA

T4: Arabidopsis 14-3-3 omega, full length (At14-3-3-ω^1−259) (Arabidopsis thaliana, UniProt Q01525 1-259)
T4 chain: T2 chain

T5: Arabidopsis 14-3-3 lambda (At14-3-3-λ^1−248) (Arabidopsis thaliana, UniProt P48349 1-248)
T5 chain: T3 sequence with A233N


Experiments:
[1] = molecular target: T1, Arabidopsis 14-3-3 isoform kappa …; assay: ITC
[2] = molecular target: T2, biotinylated 14-3-3 ω dimer
[3] = molecular target: T3, At14-3-3 λ^N233A; assay: ITC
[4] = molecular target: T4, Arabidopsis 14-3-3 omega, full length …; assay: ITC
[5] = molecular target: T5, Arabidopsis 14-3-3 lambda …; assay: ITC
[6] = molecular target: T1, Arabidopsis 14-3-3 isoform kappa …; assay: ITC

Binder | Kd [1] | koff [2] [s⁻¹] | Kd [3] [µM] | Kd [4] [µM] | Kd [5] [µM] | Kd [6] [µM]
RISN[pS]AP [pBZR1^169−175 peptide] | 0.38 µM and 0.4 µM | 0.87 | 5 | 0.88 | 0.81 | 0.57
RISN[pS]CPV[pT]PPVSSPT [pBZR1^169−184 peptide] | 3.1 µM and 3 µM |  |  |  |  | 
RKL[pT]FA [pBRI1^869−874 peptide] | 16.7 µM and 17 µM |  | 40 |  |  | 
RGELF[pS]AP [pBKI1^265−272 peptide] |  |  | 3.7 | 6.4 | 5.4 | 14.4
